# Laboratory results reported in patent US20130251714A1.
# Target: CXCR5 (human; form in the assay not stated) (UniProt P32302)
# Assay: side-by-side comparison; method not stated
binder,measurement,value
"Mouse anti-hCXCR5 mAb clone 16D7 (antibody, V domains shown) VH: QVQLKESGPGLVAPSQSLSITCTVSGFSLIDYGVNWIRQPPGKGLEWLGVIWGDGTTYYNSALKSRLSIRKDNSQSQVFLKMNSLQTDDTAMYYCARIVYWGQGTLVTVSA VL: DIVMTQAAPSVAVTPRESVSISCRSSKSLLHSSGKTYLYWFLQRPGQSPQLLIYRMSNLASGVPDRFSGSGSGTAFTLRISRVEAEDVGVYYCMQHLEYPYTFGGGTKLEIK",fold higher affinity than the commercial antibodies,10 fold
same,"off rate, times better than the other antibodies",100 times
